Measured values: patent US20240294651A1 (KYMAB, published 2024)

B1: CL-82558 (antibody, human IgG4 S228P, kappa, V domains shown)
VH: QVQLQESGPGLVKPSQTLSLTCTVSGGSISSGGYYWSWIRQVPGKGLEWIGYISYSGNTFYSPSLKSRVTISVDTSENKFSLRLTSVTAADTAVYFCARDRRIPMLRGVKGYYYGLDVWGQGTTVTVSS
VL: DIVMTQSPLSLPVIPGEPASISCRSSQSLLHRNGYKYLDWYLQKPGQSPQLLIYLGSNRASGVPARFSGSGSGTDFTLKISRVEAEDVGVYYCMQALQTPWTFGQGTKVEIKR
notes: Tested in human IgG4-PE format; also called CL-82558 (IgG4-PE format)
B2: CL-82658 (antibody, human IgG4 S228P, kappa, V domains shown)
VH: QVQLVESGGGVVQPGRSLRLSCAASGFSFSSYGMHWVRQAPGKGLEWVAVISYDGSNKYYADSVKGRFTISRDNSKNTLYLQMNSLRGEDTAVYYCSKGSLTPRRGYYYSYGMDVWGQGTTVTVSS
VL: DIQMTQSPSSLSASVGDRVTITCRASQGIRNDLSWYQQKPGKAPKRLIYAASSLQSGVPSRFSGSGSGTEFTLTISSLQPEDFATYYCLQHNGYPFTFGPGTKVDIKR
notes: Tested in human IgG4-PE format; also called CL-82658 (IgG4-PE format)
B3: CL-148729 (antibody, human IgG4 S228P, lambda, V domains shown)
VH: AVQLVESGGGLVQPGGSLKLSCAASGFTFSGSTMHWVRQASGRGLEWVGRIRSKADSYATAYSASVKGRFTISRDDSKKMAYLQMNSLKTEDMAVYYCTRSGDYWGQGTLVTVSS
VL: QSVLTQPPSVSAAPGQKVTISCSGSSSNIGKNYVAWYQQLPGTAPKLLIYDTNKRPSGIPDRFSGSKSGTSATLDITGLQTGDEADYYCGTWDISLSVGWLFGGGTKVTVLG
notes: Tested in human IgG4-PE format
B4: Anti-CXCR7 mAb #11G8 (R&D Systems) (antibody, V domains shown)
VH: EVKLVESGGDLVQPGGSLKLSCATSGFTFSDYYMFWVRQTPEKRLEWVAYITNGGDRSYYSDTVTGRFIISRDNAKNTLYLQMSRLKSEDTAMYYCARQGNWAAWFVYWGQGTLVTVSA
VL: DVLMTQTPLSLPVSLGDQASISCRSSHYIVHSDGNTYLEWYLQKPGQSPKLLIYKVSNRFSGVPDRFSGSGSGTDFTLKISRVEAEDLGIYYCFQGSHVPLTFGAGTKLELKR

Columns and labels:
[1] = target: T1, human CXCR4 (cell-expressed) (human, UniProt P61073 1-352); assay: cell-based or functional assay
[2] = target: T1, human CXCR4 (cell-expressed); assay: cell-based or functional assay; remark: listed apart in the source
[3] = target: T2, human CXCR7 (human, UniProt P25106 1-362); assay: flow cytometry on CHO-S cells expressing human CXCR7, Alexa Fluor 647 secondary antibody, GeoMean (647 nm)
T2 construct: Expressed on CHO-S cells
Experimental: CXCR7 expressing CHO-S cells were plated at 100 μL/well of cells at 1 million of cells/mL (0.1 million of cells/well) into a 96 well V-bottom plate (Greiner). Plates were centrifuged at 300×g for 3 min at 4° C. and supernatant discarded. […] Primary antibody dilutions were added to cells (100 μL/well) and cell pellets resuspended by pipetting. Plate was incubated for 1 h at 4° C. 100 μL/well of PBS, was added and plates centrifuged at 300×g for 3 min at 4° C. and supernatant discarded. This step was repeated twice. […] Cells were resuspended by pipetting. Plate was incubated for 1 h at 4° C. 100 μL/well of PBS, was added and plates centrifuged at 300×g for 3 min at 4° C. and supernatant discarded. This step was repeated twice. Finally, cells were resuspended in 100 μL/well of PBS and analysed on CytoFLEX (Beckman Coulter).
Binding of antibodies to CXCR7 expressed on CHO-S cells was analysed by gating the main cell population using forward and side scatter (Flow Jo, Flow Jo LLC) to allow for doublet discrimination.

[4] = target: T3, CXCR4 StaR nanodiscs; assay: SPR (Biacore T200), IgG4-PE antibody captured by anti-IgG on CM5, CXCR4 StaR nanodiscs at 250 nM as analyte, 25 C, 1:1 model; N = 2
T3 construct: Purified receptor in lipid-protein nanodiscs; also called StaR CXCR4; thermostabilised CXCR4
Experimental: (§1) Anti-IgG antibodies were immobilised on chip CM5 (GE Healthcare) by amine coupling. […] A channel with no anti-CXCR4 antibodies captured was used as a reference. […] The blank-subtracted sensorgrams were fitted to the 1:1 interaction model using the Biacore T200 evaluation software. The assay was run at 25° C. using 0.01 M HEPES pH 7.4, 0.15 M NaCl as running buffer.

[5] = target: T3, CXCR4 StaR nanodiscs; assay: SPR (Biacore T200), IgG4-PE antibody captured by anti-IgG on CM5, CXCR4 StaR nanodiscs at 250 nM as analyte, 25 C, 1:1 model; N = 1
Experimental: as §1

[6] = target: T1, human CXCR4 (cell-expressed); assay: cell-based or functional assay; remark: listed apart in the source
[7] = target: T1, human CXCR4 (cell-expressed); assay: cell-based or functional assay; remark: listed apart in the source
[8] = target: T1, human CXCR4 (cell-expressed); assay: cell-based or functional assay; remark: listed apart in the source
[9] = target: T4, terbium-labelled SNAP-CXCR4 on HEK-293 cells (Cisbio C1TT1CXCR4) (human, UniProt P61072 1-352 (Pan troglodytes entry), terbium label on the SNAP tag); assay: TR-FRET (Tag-lite) competition with AlexaFluor 647-CXCL12 on terbium-labelled SNAP-CXCR4 HEK-293 cells
T4 construct: Bought assay-ready cells; also called CXCR4 expressing cells; not shown: SNAP tag

[10] = target: T5, cynomolgus CXCR4 (cynomolgus monkey, UniProt Q28474 1-352); assay: cell-based or functional assay
[11] = target: T1, human CXCR4 (cell-expressed); assay: cell-based or functional assay; remark: listed apart in the source
[12] = target: T1, human CXCR4 (cell-expressed); assay: cell-based or functional assay; remark: listed apart in the source
[13] = target: T5, cynomolgus CXCR4; assay: flow cytometry on CHO-S cells expressing cynomolgus CXCR4
Experimental: (§2) Cynomolgus monkey CXCR4 expressing CHO-S cells were plated at 100 uL/well of cells at 1 million of cells/mL (0.1 million of cells/well) into a 96 well V-bottom plate (Greiner). Plates were centrifuged at 300×g for 3 min at 4° C. and supernatant discarded. […] Primary antibody dilutions were added to cells (50 μL/well) and cell pellets resuspended by pipetting. Plates was incubated for 1 h at 4° C. 100 μL/well of PBS, was added and plates centrifuged at 300×g for 3 min at 4° C. and supernatant discarded. This step was repeated twice. […] Cells were resuspended by pipetting. Plates were incubated for 1 h at 4° C. 100 μL/well PBS, was added and plates centrifuged at 300×g for 3 min at 4° C. and supernatant discarded. This step was repeated twice. Finally, cells were resuspended in 100 μL/well of PBS and analysed on CytoFLEX (Beckman Coulter).
(§3) Binding of antibodies to cynomolgus CXCR4 expressed on CHO-S cells was analysed by gating the main cell population using forward and side scatter (Flow Jo, Flow Jo LLC) to allow for doublet discrimination. […] EC₅₀ values were calculated by transforming the data and fitting a 4-parameter logistic regression curve to each antibody titration.

[14] = target: T5, cynomolgus CXCR4; assay: flow cytometry on CHO-S cells expressing cynomolgus CXCR4, anti-human Alexa Fluor 647 secondary antibody, GeoMean (647 nm)
Experimental: as §2, §3

[15] = target: T2, human CXCR7; assay: flow cytometry on CHO-S cells expressing human CXCR7, anti-mouse Alexa Fluor 647 secondary antibody, GeoMean (647 nm)

T2 sequence (P25106 whole entry): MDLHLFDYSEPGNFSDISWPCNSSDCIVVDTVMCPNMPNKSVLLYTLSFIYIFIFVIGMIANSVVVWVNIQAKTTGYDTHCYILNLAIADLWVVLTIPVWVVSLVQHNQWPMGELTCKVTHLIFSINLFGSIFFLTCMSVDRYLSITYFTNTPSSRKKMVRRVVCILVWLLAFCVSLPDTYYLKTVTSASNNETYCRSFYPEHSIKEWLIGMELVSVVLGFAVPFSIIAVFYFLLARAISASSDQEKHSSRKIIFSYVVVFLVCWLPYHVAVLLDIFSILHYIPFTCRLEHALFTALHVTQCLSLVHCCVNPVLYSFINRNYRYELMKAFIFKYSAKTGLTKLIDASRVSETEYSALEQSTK
T4 sequence (P61072 whole entry): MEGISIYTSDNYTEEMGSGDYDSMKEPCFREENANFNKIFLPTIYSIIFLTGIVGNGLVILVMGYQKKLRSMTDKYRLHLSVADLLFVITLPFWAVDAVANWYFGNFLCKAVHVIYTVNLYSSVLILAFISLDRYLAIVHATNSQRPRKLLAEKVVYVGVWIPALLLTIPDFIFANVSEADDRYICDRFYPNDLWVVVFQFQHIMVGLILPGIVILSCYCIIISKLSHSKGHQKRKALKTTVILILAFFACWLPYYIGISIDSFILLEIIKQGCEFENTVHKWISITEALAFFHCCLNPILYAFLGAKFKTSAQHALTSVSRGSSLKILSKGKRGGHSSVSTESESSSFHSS
T1 sequence (P61073 whole entry): as the sequence (P61072 whole entry) above
T5 sequence (Q28474 whole entry): as the sequence (P61072 whole entry) above, with M24I, N35H, K38R, R146K, N176S counted along it

Binder	% Max Inhibition, cAMP HTRF assay, CXCR4 BacMam HEK-293 cells [1]	IC50, cAMP HTRF assay, CXCR4 BacMam HEK-293 cells, 5.5 nM CXCL12 [1]	IC50 n = 1, Jurkat chemotaxis towards 30 nM CXCL12 (IncuCyte) [2]	IC50 n = 2, Jurkat chemotaxis towards 30 nM CXCL12 (IncuCyte) [2]	IC50 n = 3, Jurkat chemotaxis towards 30 nM CXCL12 (IncuCyte) [2]	Mean IC50, Jurkat chemotaxis towards 30 nM CXCL12 (IncuCyte) [2]	binding result [3]	Kd [5]	koff [5]	kon [5]	Max Signal (Total Overlap Object Area), internalisation on Ramos cells, live-cell imaging [6]	IC50 of antibody in presence of 30 nM CXCL12, human T-cell transwell chemotaxis [7]	% Max Inhibition, beta-arrestin reporter assay, Tango CXCR4-bla U2OS cells [8]	IC50, beta-arrestin reporter assay, Tango CXCR4-bla U2OS cells, 30 nM CXCL12 [8]	% Max Inhibition [9]	IC50 [9]	% Maximum Inhibition, cAMP HTRF assay, cyno CXCR4 BacMam HEK-293 cells [10]	IC50, cAMP HTRF assay, cyno CXCR4 BacMam HEK-293 cells [10]	% effect (remaining % of CXCL12 response), DMR assay, human T-cells [11]	IC50, label-free DMR assay, isolated human T-cells, EC80 CXCL12 [11]	also measured
B1	94%	29 nM	0.72 nM	0.94 nM	0.71 nM	0.79 nM	no binding (tested: log(M) about -6.9 (about 1.2e-7 M))	3.9 nM	0.00047 s⁻¹	120000 M⁻¹ s⁻¹	23900 µm^2 per image	0.14 not printed (nM assumed)	99.5%	0.07 nM	101%	0.57 nM	83%	1.3 nM	4.3%	1.72 nM	Kd [4]: 1.7 nM; koff [4]: 0.00013 s⁻¹; kon [4]: 77000 M⁻¹ s⁻¹; % of max migration at 120 nM Ab, primary naïve T-cell trans-well migration [12]: 6.34%; EC50 [13]: 1.1 nM
B2	98%	23 nM	0.22 nM	0.31 nM	0.21 nM	0.25 nM	no binding (tested: log(M) about -6.9 (about 1.2e-7 M))	9.6 nM	0.0005 s⁻¹	52000 M⁻¹ s⁻¹	18900 µm^2 per image	0.18 not printed (nM assumed)	100%	0.35 nM	100%	1.04 nM	80%	1 nM	-0.6%	1.54 nM	% of max migration at 120 nM Ab, primary naïve T-cell trans-well migration [12]: -2.08%; IC50, primary naïve T-cell trans-well migration [12]: 0.99 nM; EC50 [13]: 4.2 nM
B3	114%	6 nM	–	–	–	–	–	–	–	–	–	–	99.6%	0.11 nM	–	–	–	–	–	–	binding result [14]: no binding (tested: log(M) about -6.9 (about 1.2e-7 M))
B4	–	–	–	–	–	–	–	–	–	–	–	–	–	–	–	–	–	–	–	–	EC50 (read off the curve) [15]: ~10 nM
